According to article PMC9293207, “Impact of C‐terminal truncations in the Arabidopsis Rab escort protein (REP) on REP–Rab interaction and plant fertility” (The Plant Journal, 2021):
One block for each binder: values may come before it.

How the values were obtained:
Conditions in all cases: both partners purified
[1] = target: T1, REPΔC‐His, truncated form of REP lacking 30 C‐terminal amino acids (Arabidopsis thaliana, UniProt Q8LLD4 1-533); experiment: SEC; purified proteins diluted to 65 nM in 200 μl Tris 20 mM pH 7.5, 100 mM NaCl, 10 mM MgCl2, 1 mM DTT, 1.5 mM GDP, incubated 4 h at room temperature; Superdex 75 10/300 GL; fractions resolved by SDS‐PAGE
T1 construct: Rab escort protein (REP) of Arabidopsis thaliana lacking 30 C‐terminal amino acids; cloned from pGWB551‐REP with primers BP‐rep‐F and BP‐rep‐R into pET301/CT‐DEST; Gateway cloning (pDONR201, pET301/CT‐DEST) may add linker residues between REP and the His tag; also called truncated mutant; truncated REP version; source: E. coli BL21(DE3)pLysS, purified (Ni‐NTA agarose)
T1 sequence (looked up): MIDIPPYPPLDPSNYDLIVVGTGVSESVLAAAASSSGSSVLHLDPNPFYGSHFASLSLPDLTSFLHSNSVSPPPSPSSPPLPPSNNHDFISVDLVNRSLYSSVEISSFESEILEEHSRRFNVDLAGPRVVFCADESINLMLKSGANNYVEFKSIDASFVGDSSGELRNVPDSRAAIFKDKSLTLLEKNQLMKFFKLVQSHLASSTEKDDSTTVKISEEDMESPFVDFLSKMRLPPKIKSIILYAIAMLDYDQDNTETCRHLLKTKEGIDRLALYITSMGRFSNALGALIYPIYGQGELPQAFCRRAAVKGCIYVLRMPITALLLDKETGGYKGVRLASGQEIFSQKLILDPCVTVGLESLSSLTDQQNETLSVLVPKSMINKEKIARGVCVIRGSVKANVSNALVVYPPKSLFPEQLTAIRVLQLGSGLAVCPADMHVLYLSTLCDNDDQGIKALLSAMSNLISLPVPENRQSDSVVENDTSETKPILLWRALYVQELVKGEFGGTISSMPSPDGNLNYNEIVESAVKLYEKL

[2] = target: T2, Rab escort protein (REP), recombinant REP‐His (Arabidopsis thaliana, UniProt Q8LLD4 1-563); experiment: as above
T2 construct: Rab escort protein (REP) of Arabidopsis thaliana, wild type; Plasmid was a gift (Dr. Michal Hala); HDX‐MS peptides are reported from region 1–14 to beyond amino acid 534, so the whole protein was probably present; also called WT REP; AtREP; source: E. coli BL21(DE3)pLysS, purified (Ni‐NTA agarose, HiTrapQ, Superdex 75)
T2 sequence (looked up): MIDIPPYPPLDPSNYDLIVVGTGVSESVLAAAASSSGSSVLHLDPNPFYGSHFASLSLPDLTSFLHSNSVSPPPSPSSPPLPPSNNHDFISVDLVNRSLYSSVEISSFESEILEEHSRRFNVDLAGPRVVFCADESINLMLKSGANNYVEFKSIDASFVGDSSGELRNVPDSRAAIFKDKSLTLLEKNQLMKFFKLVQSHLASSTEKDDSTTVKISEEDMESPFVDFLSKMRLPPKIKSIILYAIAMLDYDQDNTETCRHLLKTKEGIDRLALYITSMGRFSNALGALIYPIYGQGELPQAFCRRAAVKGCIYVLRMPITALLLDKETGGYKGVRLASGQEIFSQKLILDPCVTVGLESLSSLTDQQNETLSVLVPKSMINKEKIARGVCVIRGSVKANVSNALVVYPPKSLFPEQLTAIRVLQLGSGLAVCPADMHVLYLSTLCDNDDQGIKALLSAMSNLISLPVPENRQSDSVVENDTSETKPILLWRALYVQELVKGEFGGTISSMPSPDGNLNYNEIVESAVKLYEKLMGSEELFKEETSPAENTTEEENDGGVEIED

[3] = target: T2, Rab escort protein (REP), recombinant …; experiment: HDX-MS; complexes of REP‐His with GST‐Rab from SEC against each protein alone (apo); 20 mM Tris‐DCl, 100 mM NaCl, 5 mM MgCl2, 1 mM GDP pH 7.5 in D2O; 10 sec, 1 min, 60 min; pepsin digestion; triplicate

binding result [1]: binds | binding result [2]: binds
B1: GST‐Rab‐E1d (natural protein)
chain: not shown
notes: Rab‐E1d of Arabidopsis thaliana, cloned from Col‐0 leaf cDNA into pGEX4T1 cut with SmaI; unprenylated; Used in the presence of GDP; source: E. coli BL21(DE3)pLysS, purified (Glutathione‐Sepharose 4B, Superdex 75)

binding result [3]: binds
B2: GST‐Rab‐F2b (natural protein, Arabidopsis thaliana, UniProt Q9SN68 1-200, looked up)
chain: MAAAGNKSINAKLVLLGDVGAGKSSLVLRFVKDQFVEFQESTIGAAFFSQTLAVNDATVKFEIWDTAGQERYHSLAPMYYRGAAAAIIVFDVTNQASFERAKKWVQELQAQGNPNMVMALAGNKSDLLDARKVTAEDAQTYAQENGLFFMETSAKTATNVKEIFYEIARRLPRVQPTENPTGMVLPDRAMDRAVSSSCCA
notes: Rab‐F2b of Arabidopsis thaliana, cloned from Col‐0 leaf cDNA into pGEX4T1 cut with SmaI; unprenylated; Used in the presence of GDP; source: E. coli BL21(DE3)pLysS, purified (Glutathione‐Sepharose 4B, Superdex 75)

binding result [3]: binds | binding result [1]: binds
B3: GST‐Rab‐D1 (natural protein)
chain: not shown
notes: Rab‐D1 of Arabidopsis thaliana, cloned from Col‐0 leaf cDNA into pGEX4T1 cut with SmaI; unprenylated; Used in the presence of GDP; source: E. coli BL21(DE3)pLysS, purified (Glutathione‐Sepharose 4B, Superdex 75)

binding result [2]: binds
B4: Rab‐E1d cleaved from its GST tag (natural protein)
chain: not shown
notes: Rab‐E1d of Arabidopsis thaliana, from GST‐Rab‐E1d (pGEX4T1, SmaI) after thrombin cleavage; A few vector‐derived residues probably remain at the end after thrombin cleavage; also called E1d no tag; untagged Rab‐E1d
